Where a chain is given by its changes, count along the chain named. In names and notes the source's numbering stands. A value given as a limit tells only on which side of the number the result lay.

Series [1] addresses T1, RSM, RECQ4(348-388) (Homo sapiens, UniProt O94761).
T1 chain: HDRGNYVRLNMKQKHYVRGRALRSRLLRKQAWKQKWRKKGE
Kind of series: fluorescence anisotropy; low ionic strength (70 mM KCl); FA: 25 mM KPO4 pH 6.5, 70 mM KCl (or 500 mM NaCl), 25 C; ITC: same low-salt buffer, 30 C; NMR dsDNA: 50 mM NaPO4 pH 6.0, 150 mM NaCl, 298 K; NMR G4: 25 mM KPO4. As to conditions: protein: recombinant, tags: N-terminal His6-TEV construct (pET-M11).

Series [2] addresses T1, RSM, RECQ4(348-388). Kind of series: ITC; 70 mM KCl, pH 6.5, 30 C; FA: 25 mM KPO4 pH 6.5, 70 mM KCl (or 500 mM NaCl), 25 C; ITC: same low-salt buffer, 30 C; NMR dsDNA: 50 mM NaPO4 pH 6.0, 150 mM NaCl, 298 K; NMR G4: 25 mM KPO4. The conditions noted are these: protein: recombinant, tags: N-terminal His6-TEV construct (pET-M11). (ITC needs no label: the signal is the heat of the interaction.)

The target of series [3] is T2, sRSM, RECQ4(358-388) (Homo sapiens, UniProt O94761).
T2 chain: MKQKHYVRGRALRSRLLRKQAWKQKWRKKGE
The series can be described thus: stopped-flow/CD/NMR/light scattering global fit; Kd,1: initial 1:1 complex; FA: 25 mM KPO4 pH 6.5, 70 mM KCl (or 500 mM NaCl), 25 C; ITC: same low-salt buffer, 30 C; NMR dsDNA: 50 mM NaPO4 pH 6.0, 150 mM NaCl, 298 K; NMR G4: 25 mM KPO4. The conditions noted are these: intramolecular parallel G4.

Series [4] deals with T3, RPA32C, RPA32(172−270) (human, UniProt P15927 172-270).
T3 construct: Used 15N-labelled or unlabelled in NMR; unlabelled in ITC; also called RPA32C domain; source: E. coli BL21(DE3), purified (IMAC, TEV cleavage, second IMAC, Superdex 75); not shown: His6, N-terminal, cleaved
The series can be described thus: NMR titration; 2D lineshape analysis (TITAN v1.6) of 1H-15N HSQC titrations of 50 μM 15N RSM with RPA32C (up to 16× excess) and dsDNA (up to 4× excess) and their competition; four titrations, 24 spectra, 16 residues fitted globally to a competitive binding model. The conditions noted are these: both partners purified.

Series [5] has as its target T3, RPA32C, RPA32(172−270). The series can be described thus: NMR titration; 1H-15N HSQC of 50 or 100 μM 15N-labelled protein (RECQ4 or RPA) with step-wise addition or an excess of the unlabelled partner; buffer and temperature in Supplementary Table 6. As to conditions: both partners purified.
For series [6], the target named is T1, RSM, RECQ4(348-388). Kind of series: EMSA; FA: 25 mM KPO4 pH 6.5, 70 mM KCl (or 500 mM NaCl), 25 C; ITC: same low-salt buffer, 30 C; NMR dsDNA: 50 mM NaPO4 pH 6.0, 150 mM NaCl, 298 K; NMR G4: 25 mM KPO4. The conditions noted are these: protein: recombinant; tags: N-terminal His6-TEV construct (pET-M11); label: 5' FITC on strand 1; blunt. For orientation: Mobility shift assays separate free from complexed probe on a gel.

Series [7] concerns the target T2, sRSM, RECQ4(358-388). The series is described as above. As to conditions: label: 5' FITC on strand 1; blunt.
In series [8] the target is T4, RECQ4(322-400) (Homo sapiens, UniProt O94761 322-400).
T4 sequence: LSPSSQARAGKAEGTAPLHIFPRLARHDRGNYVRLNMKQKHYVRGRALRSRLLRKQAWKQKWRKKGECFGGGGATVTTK
Kind of series: EMSA; profile indistinguishable from RSM and sRSM; FA: 25 mM KPO4 pH 6.5, 70 mM KCl (or 500 mM NaCl), 25 C; ITC: same low-salt buffer, 30 C; NMR dsDNA: 50 mM NaPO4 pH 6.0, 150 mM NaCl, 298 K; NMR G4: 25 mM KPO4. The conditions noted are these: protein: recombinant; tags: N-terminal His6-TEV construct (pET-M11); label: 5' FITC on strand 1; blunt.

Series [9] addresses T4, RECQ4(322-400). Kind of series: NMR; only RSM residues affected; FA: 25 mM KPO4 pH 6.5, 70 mM KCl (or 500 mM NaCl), 25 C; ITC: same low-salt buffer, 30 C; NMR dsDNA: 50 mM NaPO4 pH 6.0, 150 mM NaCl, 298 K; NMR G4: 25 mM KPO4. The conditions noted are these: protein: recombinant; tags: N-terminal His6-TEV construct (pET-M11); label: 5' FITC on strand 1 (FA); blunt.
Series [10] has as its target T1, RSM, RECQ4(348-388). Kind of series: NMR 2D lineshape analysis (competition with RPA32C); 150 mM NaCl, pH 6.0, 298 K; kon 1.5e10 M-1 s-1; FA: 25 mM KPO4 pH 6.5, 70 mM KCl (or 500 mM NaCl), 25 C; ITC: same low-salt buffer, 30 C; NMR dsDNA: 50 mM NaPO4 pH 6.0, 150 mM NaCl, 298 K; NMR G4: 25 mM KPO4. As to conditions: protein: recombinant; tags: N-terminal His6-TEV construct (pET-M11); label: 5' FITC on strand 1 (FA); blunt.

Series [11] deals with T2, sRSM, RECQ4(358-388). Kind of series: NMR; largest CSP at 5'-end G-tetrad; FA: 25 mM KPO4 pH 6.5, 70 mM KCl (or 500 mM NaCl), 25 C; ITC: same low-salt buffer, 30 C; NMR dsDNA: 50 mM NaPO4 pH 6.0, 150 mM NaCl, 298 K; NMR G4: 25 mM KPO4. The conditions noted are these: label: 5' FITC (FA); intramolecular hybrid G4.
The target of a further series is T5, RSM 5E mutant (Homo sapiens, UniProt O94761 348-388, R375E;K376E;K380E;K382E;R384E).
T5 chain: T1 chain with R28E, K29E, K33E, K35E, R37E
Kind of series: NMR; binding not detectable, no droplets; FA: 25 mM KPO4 pH 6.5, 70 mM KCl (or 500 mM NaCl), 25 C; ITC: same low-salt buffer, 30 C; NMR dsDNA: 50 mM NaPO4 pH 6.0, 150 mM NaCl, 298 K; NMR G4: 25 mM KPO4. As to conditions: protein: recombinant; tags: N-terminal His6-TEV construct (pET-M11); label: 5' FITC (FA); intramolecular hybrid G4.

The target of series [12] is T1, RSM, RECQ4(348-388). Kind of series: fluorescence anisotropy; low ionic strength (70 mM KCl); submicromolar; FA: 25 mM KPO4 pH 6.5, 70 mM KCl (or 500 mM NaCl), 25 C; ITC: same low-salt buffer, 30 C; NMR dsDNA: 50 mM NaPO4 pH 6.0, 150 mM NaCl, 298 K; NMR G4: 25 mM KPO4. As to conditions: protein: recombinant, tags: N-terminal His6-TEV construct (pET-M11). On the technique in general: Fluorescence polarisation rises when a labelled molecule tumbles more slowly, as on binding a larger partner.

Series [13] addresses T1, RSM, RECQ4(348-388). Kind of series: NMR; 300 mM NaCl, pH 6.0, 288 K; FA: 25 mM KPO4 pH 6.5, 70 mM KCl (or 500 mM NaCl), 25 C; ITC: same low-salt buffer, 30 C; NMR dsDNA: 50 mM NaPO4 pH 6.0, 150 mM NaCl, 298 K; NMR G4: 25 mM KPO4. As to conditions: protein: recombinant; tags: N-terminal His6-TEV construct (pET-M11); 10 bp duplex with unpaired TTTT arms (3' of strand 1, 5' of strand 2).

Where [14] appears, read: label: 5' FITC (FA), intramolecular hybrid G4.

T3 sequence (P15927 172-270): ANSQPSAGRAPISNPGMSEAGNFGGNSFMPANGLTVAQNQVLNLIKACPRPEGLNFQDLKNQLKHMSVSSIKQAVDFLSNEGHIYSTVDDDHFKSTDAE

One may read the Kd as a measure of binding affinity in units of concentration. For the molecule CAGCGCTCGG (ssDNA) [ss10], in the series with RSM, RECQ4(348-388) [1] (label: 5' FITC (FA)), the Kd was ~1000 nM. As to TTGGGTGGGTGGGTGGGT (structured_DNA) [T95-2T parallel G4], the Kd came out at 200 ± 80 nM in the series with RSM, RECQ4(348-388) [2] (intramolecular parallel G4) and 3100 ± 200 nM with sRSM, RECQ4(358-388) [3].

B1: RECQ4-specific motif (RSM), RECQ4(348–388) (domain or fragment, human, UniProt O94761 348-388, looked up)
chain: T1 chain
notes: H. sapiens RECQ4 residues 348-388 (RSM), cloned in pET-M11; Used 15N-labelled or unlabelled in NMR; unlabelled in ITC; source: E. coli BL21(DE3), purified (IMAC, TEV cleavage, Mono S, Superdex 75); not shown: His6, N-terminal, cleaved
In general, kon refers to the second-order rate constant of association. Read a high kon as faster complex formation. With B1, in the series with RPA32C, RPA32(172−270) [4], the affinity, expressed as Kd, was 117000 nM and the kon was 2.4e+08 M⁻¹ s⁻¹.

B2: RSM W379A/W383A (domain or fragment, human, UniProt O94761 348-388, looked up)
chain: T1 chain with W32A, W36A
notes: H. sapiens RECQ4 residues 348-388 with W379A and W383A, made from the RECQ4(348–388) expression vector; also called RSM double tryptophan mutant; source: E. coli BL21(DE3), purified; not shown: His6, N-terminal, cleaved
In the case of B2, in the series with RPA32C, RPA32(172−270) [5], the binding result is “binds”.

B3: ds49 (dsDNA)
DNA 1: AGCTACCATGCCTGCACGAATTAAGCAATTCGTAATCATGGTCATAGCT
DNA 2: AGCTATGACCATGATTACGAATTGCTTAATTCGTGCAGGCATGGTAGCT
On to B3, for which the binding result in the series with RSM, RECQ4(348-388) [6] is listed as “binds”; in the series with sRSM, RECQ4(358-388) [7] it was “binds”; in the series with RECQ4(322-400) [8], “binds”.

B4: ds10 (dsDNA)
DNA 1: CAGCGCTCGG
DNA 2: CCGAGCGCTG
As to B4, the binding result with RECQ4(322-400) [9] was “binds”. The equilibrium dissociation constant (Kd) with RSM, RECQ4(348-388) [1] (label: 5' FITC on strand 1 (FA), blunt) was ~1000 nM; with RSM, RECQ4(348-388) [10], 6300 ± 600 nM.

B5: RECQ4(322–400) (domain or fragment, human, UniProt O94761 322-400, looked up)
chain: T4 sequence
notes: Used 15N-labelled or unlabelled in NMR; source: E. coli BL21(DE3), purified (IMAC, TEV cleavage, Mono S, Superdex 75); not shown: His6, N-terminal, cleaved
Take B5: in the series with RPA32C, RPA32(172−270) [5], the binding result was “binds”. In the case of TTGGGTTAGGGTTAGGGTTAGGGA (structured_DNA) [HT hybrid G4], the Kd with RSM, RECQ4(348-388) [2] (setting [14]) is 420 ± 140 nM; with RSM, RECQ4(348-388) [12] (setting [14]) it was < 1000 nM. Moreover, the binding result with sRSM, RECQ4(358-388) [11] is listed as “binds”; with RSM 5E mutant, “no binding”.

B6: splayed-arm Y14 (dsDNA)
DNA 1: CAGCGCTCGGTTTT
DNA 2: TTTTCCGAGCGCTG
Take B6: the binding result with RSM, RECQ4(348-388) [13] was “binds”.

For the molecule AGGGGGGAGGGAGGGTGG (structured_DNA) [CEB1 parallel G4], the Kd in the series with RSM, RECQ4(348-388) [12] (label: 5' FITC or Cy3 (FA, EMSA), parallel G4) is < 1000 nM.

The values above are taken from publication PMC10598209 (Nature Communications, 2023).
